The values that follow come from US20030139571A1.

The IC50 is the concentration that gives 50% inhibition.

The target of assay [1] is biotinylated CCR5 Nt sulfopeptide 2-18.
The target in assay [2] is CCR5 on L1.2-CCR5+ cells (Homo sapiens (Human)) (UniProt P51681).
The target of assay [3] is gp120JR-FL (HIV-1 JR-FL) (UniProt P20871). Description: cell-based or functional assay.
Assay [4] has as its target biotinylated CCR5 Nt sulfopeptide 2-18. Description: direct ELISA, biotinylated peptide on streptavidin plate, complex titrated (CD4-IgG2 concentration), anti-human IgG-HRP. On the technique in general: ELISA stands for enzyme-linked immunosorbent assay.
Assay [5] shares this target. Description: peptide ELISA, gp120/CD4-IgG2 complexes.
The target of assay [6] is CD4-IgG2.
Assay [7] has as its target gp120JR-FL/CD4-IgG2 complex (HIV-1 JR-FL).
Assay [8] has as its target gp120DH123/CD4-IgG2 complex (HIV-1 DH123). Kind of assay: SPR, complex 50 nM over immobilised sulfopeptide 2-18 with MAb (150 mM [sic]). (Surface plasmon resonance follows binding to a sensor surface in real time, without labels.)
Assay [9] deals with biotinylated CCR5 Nt sulfopeptide 8-15. Description: ELISA, biotinylated peptide on streptavidin plate, anti-human IgG-HRP.
Assay [10] deals with biotinylated CCR5 Nt sulfopeptide 10-18. Described as above.
Assay [11] concerns the target biotinylated CCR5 Nt sulfopeptide 6-16. The assay is described as above.
The target of assay [12] is biotinylated CCR5 Nt sulfopeptide 10-15. The description is as above.
Assay [13] has as its target CCR5 on L1.2-CCR5+ cells (Homo sapiens (Human)) (UniProt P51681). The source holds these as a separate data set.

Where “and” joins values, the source holds several entries; their conditions need not be identical. Equal values may be shown once.

gp120JR-FL N301A/CD4-IgG2 complex: the fold decrease in binding vs wild-type gp120JR-FL in [1] was above 10 fold. Consider gp120JR-FL G310A/CD4-IgG2 complex, for which the fold decrease in binding vs wild-type gp120JR-FL in assay [2] was 10 fold and 5 fold. In [3], CCR5 Nt peptide S-10/14 returned an inhibition of entry of Nlluc+env- particles pseudotyped with HIV-1JR-FL envelope (luciferase; HeLa-CD4+CCR5+ and U87MG-CD4+CCR5+ cells; peptide 100 µM) of 50%.

In assay [4], gp120DH123/CD4-IgG2 complex showed an IC50 of 5 nM. Further, the fold less binding than gp120JR-FL in assay [5] was determined as 5 fold. As to “gp120JR-FL R440A (from UniProt P20871 32-503)”, in [6], the fold lower avidity than wild type was 5 fold and 10 fold. Consider gp120JR-FL F315A/CD4-IgG2 complex, for which, in [2], the fold decrease in binding vs wild-type gp120JR-FL was 5 fold and 10 fold. Turning to gp120JR-FL I325A/CD4-IgG2 complex, the fold decrease in binding vs wild-type gp120JR-FL in assay [1] was above 10 fold. Take gp120JR-FL I322A/CD4-IgG2 complex: the fold decrease in binding vs wild-type gp120JR-FL in assay [1] is above 10 fold. For the substance gp120JR-FL K421A/CD4-IgG2 complex, the fold decrease in binding vs wild-type gp120JR-FL in [1] is 5 fold and 10 fold. As for gp120JR-FL R444A/CD4-IgG2 complex, in assay [1], the fold decrease in binding vs wild-type gp120JR-FL was 5 fold and 10 fold. In assay [3], CCR5 Nt peptide S-3/10/14 showed an inhibition of entry of Nlluc+env- particles pseudotyped with HIV-1JR-FL envelope (luciferase; HeLa-CD4+CCR5+ and U87MG-CD4+CCR5+ cells; peptide 100 µM) of 50%.

In the case of gp120JR-FL Q422A/CD4-IgG2 complex, in [1], the fold decrease in binding vs wild-type gp120JR-FL is 5 fold and 10 fold.

As for “gp120JR-FL W427A (from UniProt P20871 32-503)”, the fold lower avidity than wild type in [6] was 5 fold and 10 fold. Consider gp120JR-FL I420A/CD4-IgG2 complex, for which the fold decrease in binding vs wild-type gp120JR-FL in [1] was 5 fold and 10 fold.

With gp120JR-FL R419A/CD4-IgG2 complex, the fold decrease in binding vs wild-type gp120JR-FL in [1] was 5 fold and 10 fold.

As for gp120JR-FL R313A/CD4-IgG2 complex, the fold decrease in binding vs wild-type gp120JR-FL in [2] was 5 fold and 10 fold. Still for that read-out and setting: with gp120JR-FL Y316A/CD4-IgG2 complex the figure was 5 fold and 10 fold. For “gp120JR-FL R469A (from UniProt P20871 32-503)”, in assay [6], the fold lower avidity than wild type was 5 fold and 10 fold.

anti-V3 loop MAb 19b (antibody): the % inhibition of complex binding to sulfopeptide 2-18 in assay [7] is above 90%; in assay [8], 80%.

gp120JR-FL D324A/CD4-IgG2 complex returned a fold decrease in binding vs wild-type gp120JR-FL in [1] above 10 fold. For the substance gp120JR-FL P311A/CD4-IgG2 complex, the fold decrease in binding vs wild-type gp120JR-FL in assay [2] is 5 fold and 10 fold.

As for gp120JR-FL T303A/CD4-IgG2 complex, in assay [1], the fold decrease in binding vs wild-type gp120JR-FL is above 10 fold. In the case of gp120JR-FL R326A/CD4-IgG2 complex, the fold decrease in binding vs wild-type gp120JR-FL in assay [1] is above 10 fold. For anti-gp120 MAb 17b (antibody), the % inhibition of complex binding to sulfopeptide 2-18 in [7] and in assay [8] was above 90% each time. gp120JR-FL R298A/CD4-IgG2 complex showed a fold decrease in binding vs wild-type gp120JR-FL in assay [1] above 10 fold. Consider gp120JR-FL/CD4-IgG2 complex, for which the fold less avid than for sulfopeptide 2-18 in assay [9], in assay [11] and in [12] was above 10 fold throughout. Besides, in assay [10], the fold lower avidity than for sulfopeptide 2-18 is 3 fold. In assay [4], this substance gave an IC50 of 1 nM. In assay [13], the m.f.i. stood at 40 m.f.i. As for anti-gp120 MAb 48d (antibody), the % inhibition of complex binding to sulfopeptide 2-18 in assay [7] and in [8] was above 90% each time. With gp120JR-FL S306A/CD4-IgG2 complex, the fold decrease in binding vs wild-type gp120JR-FL in assay [2] was 5 fold and 10 fold.
